T1: Recombinant human Naglu (rhNaglu)
T1 chain: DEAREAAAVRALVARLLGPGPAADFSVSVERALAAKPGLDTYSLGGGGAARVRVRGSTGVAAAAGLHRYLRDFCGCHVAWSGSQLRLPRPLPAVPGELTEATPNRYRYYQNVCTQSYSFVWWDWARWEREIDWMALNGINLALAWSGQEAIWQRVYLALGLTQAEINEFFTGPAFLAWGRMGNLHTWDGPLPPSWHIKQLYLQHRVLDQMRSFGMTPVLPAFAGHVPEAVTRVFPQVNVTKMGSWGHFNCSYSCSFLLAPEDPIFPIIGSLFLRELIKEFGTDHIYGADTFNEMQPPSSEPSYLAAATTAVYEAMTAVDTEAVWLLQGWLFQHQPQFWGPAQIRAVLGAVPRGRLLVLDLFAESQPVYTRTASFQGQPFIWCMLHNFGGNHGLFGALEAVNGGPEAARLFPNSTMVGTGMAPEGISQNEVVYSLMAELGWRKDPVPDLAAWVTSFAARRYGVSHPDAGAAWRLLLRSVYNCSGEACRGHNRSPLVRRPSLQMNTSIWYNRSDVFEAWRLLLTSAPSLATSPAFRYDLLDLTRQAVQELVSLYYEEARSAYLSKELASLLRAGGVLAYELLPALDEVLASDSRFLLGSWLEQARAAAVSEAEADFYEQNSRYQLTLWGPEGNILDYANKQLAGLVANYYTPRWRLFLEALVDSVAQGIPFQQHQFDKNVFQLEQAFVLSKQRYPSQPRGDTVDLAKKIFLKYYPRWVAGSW

T2: Naglu-Kif, a high-mannose-containing recombinant human Naglu (before sGNPT modification)
T2 chain: T1 chain

T3: rhNaglu (Homo sapiens, UniProt P54802)
T3 construct: The N-terminal 23 amino acids are cleaved as the precursor protein enters the endoplasmic reticulum, resulting in a mature form; made in house; host or cells: human fibrosarcoma HT1080 cell clone over-expressing rhNaglu
T3 sequence (P54802 24-743): T1 chain

B1: Soluble human N-acetylglucosamine-1-phosphotransferase (sGNPT), HPC4 tagged (protein)
chain: DEDQVDPRLIDGKWSRDQYHVLFDSYRDNIAGKSFQNRLCLPMPIDVVYTWVNGTDLELLKELQQVREQMEEEQKAMREILGKNTTEPTKKSEKQLECLLTHCIKVPMLVLDPALPANITLKDLPSLYPSFHSASDIFNVAKPKNPSTNVSVVVFDSTKDVEDAHSGLLKGNSRQTVWRGYLTTDKEVPGLVLMQDLAFLSGFPPTFKETNQLKTKLPENLSSKVKLLQLYSEASVALLKLNNPKDFQELNKQTKKNMTIDGKELTISPAYLLWDLSAISQSKQDEDISASRFEDNEELRYSLRSIERHAPWVRNIFIVTNGQIPSWLNLDNPRVTIVTHQDVFRNLSHLPTFSSPAIESHIHRIEGLSQKFIYLNDDVMFGKDVWPDDFYSHSKGQKVYLTWPVPNCAEGCPGSWIKDGYCDKACNNSACDWDGGDCSGNSGGSRYIAGGGGTGSIGVGQPWQFGGGINSVSYCNQGCANSWLADKFCDQACNVLSCGFDAGDCGQDHFHELYKVILLPNQTHYIIPKGECLPYFSFAEVAKRGVEGAYSDNPIIRHASIANKWKTIHLIMHSGMNATTIHFNLTFQNTNDEEFKMQITVEVDTREGPKLNSTAQKGYENLVSPITLLPEAEILFEDIPKEKRFPKFKRHDVNSTRRAQEEVKIPLVNISLLPKDAQLSLNTLDLQLEHGDITLKGYNLSKSALLRSFLMNSQHAKIKNQAIITDETNDSLVAPQEKQVHKSILPNSLGVSERLQRLTFPAVSVKVNGHDQGQNPPLDLETTARFRVETHTQKTIGGNVTKEKPPSLIVPLESQMTKEKKITGKEKENSRMEENAENHIGVTEVLLGRKLQHYTDSYLGFLPWEKKKYFQDLLDEEESLKTQLAYFTDSKNRARYKRDTFADSLRYVNKILNSKFGFTSRKVPAHMPHMIDRIVMQELQDMFPEEFDKTSFHKVRHSEDMQFAFSYFYYLMSAVQPLNISQVFDEVDTDQSGVLSDREIRTLATRIHELPLSLQDLTGLEHMLINCSKMLPADITQLNNIPPTQESYYDPNLPPVTKSLVTNCKPVTDKIHKAYKDKNKYRFEIMGEEEIAFKMIRTNVSHVVGQLDDIRKNPRKFVCLNDNIDHNHKDAQTVKAVLRDFYESMFPIPSQFELPREYRNRFLHMHELQEWRAYRDKL
B2: rhNaglu: recombinant human alpha-N-acetyl-glucosaminidase purified from human fibrosarcoma HT1080 cells engineered to over-express it (protein)
chain: T1 chain

Assays:
[1] = biological target: T1, Recombinant human Naglu (rhNaglu)
[2] = biological target: T2, Naglu-Kif, a high-mannose-containing …
[3] = biological target: T4, CI-M6PR (Homo sapiens, UniProt P11717); experiment: Plate based sCI-M6PR binding assay (ELISA); settings: treated with sGNPT under the same conditions as Naglu-Kif
T4 construct: the secreted sCI-M6PR was purified from the tissue culture medium; made in house
Procedure: (1) Generation of sCI-M6PR (soluble CI-M6PR)—Full length M6PR was expressed in genetically modified tissue culture cells, and the secreted sCI-M6PR was purified from the tissue culture medium using an aminophenyl-M6P conjugated resin (Beljaars et al., 1999). N-terminal sequencing and LC/MS/MS analysis of the obtained protein confirmed the amino acid sequence of the sCI-M6PR, and MALDI analysis confirmed that its molecular mass was 279,492 Da.
100 μl of sCI-M6PR(2.5 μg/ml) in DPBS were coated on MaxiSorp® Nunc-Immuno flat-bottom 96-well plates (Thermo Fisher Scientific, Inc., Sunnyvale, Calif.). After incubation for 1 hour at 37° C., the plates was washed with ELISA wash buffer (0.1% Tween-20 in DPBS). sCI-M6PR coated wells were blocked with 300 μl ELISA blocking buffer (DPBS, 2% BSA, 0.05% Tween 20) at 37° C. for 1 hour. Appropriate dilutions of sGNPT-modified Naglu-Kif (and rhNaglu as control) were made in blocking buffer and added to the wells. After 1 hour incubation at 37° C., the plates were washed with ELISA wash buffer, and 100 μl of HRP-conjugated rabbit anti-Naglu polyclonal antibody #2957 diluted in blocking buffer were added. After 1 hour incubation at 37° C., the plates was washed again with ELISA wash buffer. The ELISA was developed using TMB peroxidase substrate solution (KPL, Inc., Gaithersburg, Mass.) by following the manufacturer's protocol.
sGNPT transfers the phospho-GlcNAc group from UDP-GlcNAc to mannose sugar, and the resulting mannose-6-phosphate-GlcNAc is called the Capped-M6P. During the normal intracellular glycosylation process, the decapping enzyme (N-acetylglucosamine 1-phosphodiester α-N-acetyglucosaminidase) removes the GlcNAc from the Capped-M6P, to generate M6P. But without decapping, the Capped-M6P can also bind to CI-M6PR. Capped-M6P binds to domain 5 of CI-M6PR rather than to domain 3 or 9, as M6P does (Bohnsack et al. 2009). The amount of Capped-M6P on Naglu-Kif can be indirectly evaluated using a CI-M6PR plate binding assay. In this binding assay the affinity with which Naglu-Kif bound to CI-M6PR increased in proportion to the amount of sGNPT used (35 μg, 70 μg and 140 (corresponding to about 4.2 μM) (green, red and empty circle in FIG. 8, respectively)) to modify Naglu-Kif and thus the extent of Capped-M6P found on Naglu-Kif (FIG. 8). […] These binding reactions were repeated in two different buffer systems, i.e., in a sodium acetate buffer (40 mM NaAc pH 6.5, 10 mM MnCl2, 10 mM MgCl2) and in a Tris buffer (50 mM Tris pH 7.4, 10 mM MnCl2, 10 mM MgCl2), which gave similar results. Contrary to Naglu-Kif, rhNaglu was not phosphorylated by sGNPT under the same conditions due to the lack of high-mannose glycans.

[4] = biological target: T3, rhNaglu; experiment: Naglu substrate analysis: hydrolysis of UDP-sugars by rhNaglu, PAD-HPLC; assay type: biochemical; settings: 0.8 mM UDP-GlcNAc, 37° C., 1 hour
Procedure: Recombinant human Naglu was co-incubated with uridine diphosphate N-acetylglucosamine (UDP-GlcNAc) or uridine diphosphate N-acetyl galactosamine (UDP-GalNAc). UDP-GlcNAc, GlcNAc (N-acetylglucosamine) and UDP-GalNAc were detected using PAD-HPLC (Pulsed Amperometric Detection-High Pressure Liquid Chromatography) that was modified after Chavaroche et al. 2011.
Recombinant human Naglu was dialyzed into Tris buffer (40 mM Tris pH 7.15, 100 mM NaCl, 4 mM MgCl2, and 4 mM MnCl2) and concentrated with VivaSpin® sample concentrators having a 30 kDa cut-off (Viva Products, Inc., Littleton, Mass.). […]
Samples were then subjected to centrifugation at 10,000 rpm, and the resulting supernatants were loaded on PA10 columns and detected by PAD-HPLC (Pulsed Amperometric Detection-High Pressure Liquid Chromatography) (Dionex ICS-3000 Ion Chromatography System (Thermo Fisher Scientific, Inc., Sunnyvale, Calif.)). […] The peak areas for the eluted UDP-GlcNAc were measured, and the reductions of the area under the curve (AUC) in response to increased concentrations of rhNaglu were determined (FIG. 1A). A new peak at 10.7 minutes was detected on the chromatograms of samples treated with concentrations of rhNaglu of 23.4 μg/ml and above. […] The peak areas for the eluted GlcNAc were measured, and the increases of the AUC in response to increased concentrations of rhNaglu were determined (FIG. 1B). […]

| Molecule | in vitro phosphorylation by sGNPT [1] | pmol M6P/pmol Naglu Kif (M6P monosaccharide quantitation by PAD-HPLC after in vitro phosphorylation; +70 ug GNPT, 50 mM Tris pH 7.4, 10 mM MnCl2, 10 mM MgCl2) (pmol M6P/pmol Naglu Kif) [2] | pmol M6P/pmol Naglu Kif (M6P monosaccharide quantitation by PAD-HPLC after in vitro phosphorylation; +70 ug GNPT, 50 mM sodium acetate pH 6.5, 20 mM MnCl2) (pmol M6P/pmol Naglu Kif) [2] | pmol M6P/pmol Naglu Kif (M6P monosaccharide quantitation by PAD-HPLC after in vitro phosphorylation; +140 ug GNPT, 50 mM sodium acetate pH 6.5, 20 mM MnCl2) (pmol M6P/pmol Naglu Kif) [2] | binding to CI-M6PR [3] | minimum rhNaglu concentration required for detection of hydrolysis of UDP-GlcNAc [4] |
| --- | --- | --- | --- | --- | --- | --- |
| B1 | rhNaglu was not phosphorylated by sGNPT under the same conditions due to the lack of high-mannose glycans | 1.45 | 0.12 | 0.64 | – | – |
| B2 | – | – | – | – | did not bind | 23.4 µg/mL |

Source: US20170267986A1, “GENERATION OF MANNOSE-6-PHOSPHATE CONTAINING RECOMBINANT ALPHA-N-ACETYL GLUCOSAMINIDASE” (SHIRE HUMAN GENETIC THERAPIES, INC., priority 2014, published 2017)
